# Results as given in patent US20070196350A1, “Compositions and Methods for Effecting Controlled Posterior Vitreous Detachment” (priority 2006, published 2007).
# Several values for one entry are separate records, joined by “and”; a condition that tells them apart may be missing. Equal values may be shown once.
# Tested on: eyes from Dutch Belted Rabbits (vitreoretinal interface)
# Test: Ex vivo SEM scoring of residual vitreous (posterior vitreous detachment) after intravitreal injection in rabbit eyes
# Design: key to Score of vitreo-retinal specimen, IN (Infra-Nasal Area) / Score of vitreo-retinal specimen, INL (Infra-Nasal Inferior Area) / Score of vitreo-retinal specimen, IC (Infra-Central Area) / Score of vitreo-retinal specimen, ICL (Infra-Central Lower Area) / Score of vitreo-retinal specimen, IT (Infra-Temporal Area) / Score of vitreo-retinal specimen, ITL (Infra-Temporal Lower Area): Grade 0 - extensive amount of residual vitreous; Grade 1 - moderate amount of residual vitreous; Grade 2 - mild amount of residual vitreous; Grade 3 - Inner retina visible through sparse collagen fibrils; Grade 4 - None to trace collagen fibrils covering inner retina
# Description: The purpose of this ex vivo study was to compare the efficacy of 200 μg human-derived plasmin (Bausch & Lomb Incorporated's compound name “BOL-303209-X”) alone and in combination with triamcinolone acetonide (“TA,” a glucocorticoid anti-inflammatory medicament) on PVD in Dutch Belted Rabbits using scanning electron microscopy. This study was designed to use intravitreal injection of TA to enhance clinical observations for clear identification of PVD, to minimize possible inflammatory responses, and to assess whether improved efficacy could be achieved by the combined use of BOL-303209-X and TA.
# Twelve (12) normal eyes from six (6) Dutch Belted Rabbits (both male and female) were used. All right eyes from 6 rabbits were injected with BOL-303209-X plus vehicle (Group 1, n=6 eyes) and all left eyes were injected with BOL-303209-X plus TA (Group 2, n=3, 2 mg TA/eye; Group 3, n=3, 4 mg TA/eye). BOL-303209-X was freshly prepared and kept on ice before use.
# On the day of operation, rabbits were anesthetized, eyes disinfected and pupils dilated 15-20 minutes prior to injection. Each rabbit received two intravitreal injections. In Groups 1, 2, and 3, an initial 50-μl injection of BOL-303209-X at a dose of 200 μg per eye in a formulation of 5 mM epsilon-aminocaproic acid (“EACA”)/0.05% Tween 80/0.9% saline was given intravitreally in both the right and left eyes. In Group 1 (Control) a second 50-μl injection of formulation vehicle (0.05% Tween 80/0.05% hydroxypropyl methylcellulose (HPMC)/0.9% saline) was delivered in the right eyes 5 minutes after the first injection. In Groups 2 and 3, a formulation containing TA at a dose of either 2 mg (Group 2) or 4 mg (Group 3) was injected into the left eyes in the same way.
# Eyes were examined with a slit-lamp biomicroscope assisted with a Volk Lens at 4 days prior to injection for baseline documentation. To evaluate the efficacy of BOL-303209-X, all eyes were directly observed under a surgical microscope for 5 minutes after injection for possible changes in the vitreo-retina. The injected eyes were followed up at 7 and 14 days after injection. Attention was paid particularly to the vitreoretinal interface for signs of PVD and to the retina for signs of toxicity during slit-lamp examination.
# Fourteen days after injection the in-life phase of the study was terminated, the rabbits were euthanized by over dose of pentobarbital, their eyes enucleated and fixed in Karnovsky's solution for at least 24 hours. The fixed eyes were processed further for SEM. The posterior pole of each eye was examined. Micrographs at magnifications ranging from 100-2,500× of each specimen or up to 10,000× in some cases were examined to assess the extent of posterior vitreous detachment. The amount of residual vitreous was scored on a scale of 0-4 with a score of 4 representing complete removal of vitreous from the inner retina according to a standard protocol.
# After enucleation, the eyes were trimmed of external muscle, fat, and connective tissue, and cut using a razor blade about 3 mm behind the limbus to facilitate penetration of fixative. The eyes were placed in ice-cold fixative consisting of 2% formaldehyde (from paraformaldehyde), 2.5% glutaraldehyde, in 0.1 phosphate buffer, with 0.1 M sucrose and 0.5 mM CaCl2 added, pH 7.2. Each eye was immersed in approximately 40 ml fixative. After one hour, the fixative was exchanged with fresh fixative and the eyes were transported to B&L and stored refrigerated in fixative.
# Tissue specimen that included sclera, choroid, retina with the optic nerve (approximately 1 cm in diameter) were surgically removed from each eye. These were dehydrated though a graded ethanol series (30%, 50%, 70%, 85%, 95%, 100%) for thirty minutes per dilution. Dehydrated samples were dried to the critical point (Samdri-PVT-3B, Tousimis, Rockville, Md.) and mounted on aluminum SEM pucks with colloidal graphite (Ted Pella, Inc, Redding, Calif.). […]
# [1] = Group 1: 200 μg BOL-303209-X per eye + vehicle, SEM day 14, scale 0-4, one value per eye
molecule,measurement,setting,value
"BOL-303209-X: human-derived plasmin (Bausch & Lomb Incorporated's compound name “BOL-303209-X”) (protein, UniProt P00747 20-580; P00747 581-810, looked up, plasmin plasma-derived) Plasmin heavy chain A: EPLDDYVNTQGASLFSVTKKQLGAGSIEECAAKCEEDEEFTCRAFQYHSKEQQCVIMAENRKSSIIIRMRDVVLFEKKVYLSECKTGNGKNYRGTMSKTKNGITCQKWSSTSPHRPRFSPATHPSEGLEENYCRNPDNDPQGPWCYTTDPEKRYDYCDILECEEECMHCSGENYDGKISKTMSGLECQAWDSQSPHAHGYIPSKFPNKNLKKNYCRNPDRELRPWCFTTDPNKRWELCDIPRCTTPPPSSGPTYQCLKGTGENYRGNVAVTVSGHTCQHWSAQTPHTHNRTPENFPCKNLDENYCRNPDGKRAPWCHTTNSQVRWEYCKIPSCDSSPVSTEQLAPTAPPELTPVVQDCYHGDGQSYRGTSSTTTTGKKCQSWSSMTPHRHQKTPENYPNAGLTMNYCRNPDADKGPWCFTTDPSVRWEYCNLKKCSGTEASVVAPPPVVLLPDVETPSEEDCMFGNGKGYRGKRATTVTGTPCQDWAAQEPHRHSIFTPETNPRAGLEKNYCRNPDGDVGGPWCYTTNPRKLYDYCDVPQCAAPSFDCGKPQVEPKKCPGR Plasmin light chain B: VVGGCVAHPHSWPWQVSLRTRFGMHFCGGTLISPEWVLTAAHCLEKSPRPSSYKVILGAHQEVNLEPHVQEIEVSRLFLEPTRKDIALLKLSSPAVITDKVIPACLPSPNYVVADRTECFITGWGETQGTFGAGLLKEAQLPVIENKVCNRYEFLNGRVQSTELCAGHLAGGTDSCQGDSGGPLVCFEKDKYILQGVTSWGLGCARPNKPGVYVRVSRFVTWIEGVMRNN","n ≧ 3, number of eyes of the group with mean score of 3 or higher",Group 1 (n=6 eyes): 200 μg BOL-303209-X per eye + vehicle,2
same,Mean score of the group,"Group 1 (n=6 eyes): 200 μg BOL-303209-X per eye + vehicle, SEM day 14, scale 0-4",2.6
same,"Mean score of 6 inferior fields, per eye",[1],3.2 and 2.8 and 2.5 and 1.7 and 3.0
same,"Score of vitreo-retinal specimen, IC (Infra-Central Area)",[1],4 and 3
same,"Score of vitreo-retinal specimen, ICL (Infra-Central Lower Area)",[1],3 and 2 and 1
same,"Score of vitreo-retinal specimen, INL (Infra-Nasal Inferior Area)",[1],3 and 1
same,"Score of vitreo-retinal specimen, IT (Infra-Temporal Area)",[1],3 and 2
same,"Score of vitreo-retinal specimen, ITL (Infra-Temporal Lower Area)",[1],3 and 2 and 1
same,"n ≧ 3 (eye with mean score of 3 or higher), per eye","Group 1: 200 μg BOL-303209-X per eye + vehicle, per-eye count",1
same,"Score of vitreo-retinal specimen, IN (Infra-Nasal Area)","Group 1: 200 μg BOL-303209-X per eye intravitreal + second injection of vehicle, SEM 14 days after injection, scale 0-4, one value per eye",3 and 2
